Measurements taken from publication PMC11116813.

Legend:
[1] = molecular target: Chp2 (Schizosaccharomyces pombe) (UniProt O42934); details: cited from earlier work
[2] = molecular target: full-length human HP1α WT (hHP1α), recombinant (human) (UniProt P45973); experiment: ITC; iTC200, full-length HP1α dimer in the cell (60 μM for hINCENP, 80 μM for hSgo1), 600 μM hINCENP or 800 μM hSgo1 fragment in the syringe, 25°C, 20 mM NaPO4 pH 7.0, 150 mM NaCl, 1 mM DTT (Fig. 6A, Fig. S5A); one-site model
Chain of full-length human HP1α WT (hHP1α), recombinant (human) (P45973 whole entry, the tested form may be a part): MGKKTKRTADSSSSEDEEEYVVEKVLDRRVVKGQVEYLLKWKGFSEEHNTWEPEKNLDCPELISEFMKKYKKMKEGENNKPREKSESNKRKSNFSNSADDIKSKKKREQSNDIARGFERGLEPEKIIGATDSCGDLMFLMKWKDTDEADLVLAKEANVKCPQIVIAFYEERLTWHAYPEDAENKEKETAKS

Chain of Mit1 (Q9P793 whole entry): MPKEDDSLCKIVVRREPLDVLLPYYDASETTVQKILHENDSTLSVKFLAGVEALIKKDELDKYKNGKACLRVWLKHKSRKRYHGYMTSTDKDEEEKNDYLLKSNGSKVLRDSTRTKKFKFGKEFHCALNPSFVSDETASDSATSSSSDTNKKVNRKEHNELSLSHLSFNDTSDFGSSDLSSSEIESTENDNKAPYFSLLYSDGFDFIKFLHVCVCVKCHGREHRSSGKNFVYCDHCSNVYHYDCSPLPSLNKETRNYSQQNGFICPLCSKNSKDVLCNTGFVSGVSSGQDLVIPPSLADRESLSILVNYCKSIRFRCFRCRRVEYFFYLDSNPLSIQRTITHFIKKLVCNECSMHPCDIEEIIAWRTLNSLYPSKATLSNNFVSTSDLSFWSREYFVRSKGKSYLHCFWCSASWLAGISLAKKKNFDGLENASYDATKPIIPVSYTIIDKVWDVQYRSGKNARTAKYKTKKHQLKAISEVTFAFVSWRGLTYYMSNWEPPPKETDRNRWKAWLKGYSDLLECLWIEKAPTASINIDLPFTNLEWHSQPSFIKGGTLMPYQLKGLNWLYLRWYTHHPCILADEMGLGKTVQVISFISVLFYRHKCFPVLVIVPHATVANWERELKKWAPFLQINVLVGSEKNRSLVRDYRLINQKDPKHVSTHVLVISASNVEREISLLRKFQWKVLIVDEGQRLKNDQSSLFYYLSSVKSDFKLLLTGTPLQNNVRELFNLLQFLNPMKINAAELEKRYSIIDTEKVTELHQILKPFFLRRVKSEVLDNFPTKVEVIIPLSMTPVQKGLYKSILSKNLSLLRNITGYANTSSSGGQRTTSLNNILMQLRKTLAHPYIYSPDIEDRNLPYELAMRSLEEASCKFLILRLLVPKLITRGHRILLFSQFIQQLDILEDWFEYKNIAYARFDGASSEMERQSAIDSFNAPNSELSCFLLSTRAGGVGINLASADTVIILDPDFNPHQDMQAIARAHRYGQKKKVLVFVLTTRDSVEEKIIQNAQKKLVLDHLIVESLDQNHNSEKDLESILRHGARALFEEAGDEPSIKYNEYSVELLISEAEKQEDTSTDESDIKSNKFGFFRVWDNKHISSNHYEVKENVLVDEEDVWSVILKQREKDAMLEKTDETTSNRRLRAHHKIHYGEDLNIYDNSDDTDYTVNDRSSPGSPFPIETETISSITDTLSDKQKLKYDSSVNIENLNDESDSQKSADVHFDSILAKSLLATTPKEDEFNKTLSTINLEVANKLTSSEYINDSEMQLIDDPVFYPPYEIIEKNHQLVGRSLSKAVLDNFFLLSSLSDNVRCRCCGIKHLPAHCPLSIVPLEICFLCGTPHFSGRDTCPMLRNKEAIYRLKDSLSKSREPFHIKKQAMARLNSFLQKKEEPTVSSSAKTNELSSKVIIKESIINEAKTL
Chain of Chp2 (Schizosaccharomyces pombe) (O42934 whole entry, the tested form may be a part): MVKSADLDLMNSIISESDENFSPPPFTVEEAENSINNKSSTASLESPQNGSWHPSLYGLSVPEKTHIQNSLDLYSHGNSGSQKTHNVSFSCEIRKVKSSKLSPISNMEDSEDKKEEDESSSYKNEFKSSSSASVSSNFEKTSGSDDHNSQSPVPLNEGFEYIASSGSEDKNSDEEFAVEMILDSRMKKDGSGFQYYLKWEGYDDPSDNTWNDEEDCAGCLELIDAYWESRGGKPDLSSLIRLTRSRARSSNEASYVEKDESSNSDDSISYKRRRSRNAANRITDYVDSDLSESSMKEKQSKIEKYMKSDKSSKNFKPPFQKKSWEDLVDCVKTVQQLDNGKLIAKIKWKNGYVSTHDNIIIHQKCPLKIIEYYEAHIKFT

Substance | Kd [1] | Kd [2]
Mit1 (from UniProt Q9P793) | 2.6 nM | –
human INCENP fragment (121-210) E180A (from UniProt Q9NQS7 121-210) (domain or fragment) | – | 810 nM
human INCENP fragment (121-210) WT used in Fig. 6A (from UniProt Q9NQS7 121-210) (domain or fragment) | – | 60 nM
